Reference: publication PMC10619557, “Crystal Structures of 6-Phosphogluconate Dehydrogenase from Corynebacterium glutamicum” (Journal of Microbiology and Biotechnology, 2023)

Target: 6-phosphogluconate dehydrogenase from Corynebacterium glutamicum ATCC 13032 (Corynebacterium glutamicum ATCC 13032)
Assay: SEC; analytical, Superdex 200 Increase 10/300 GL; 1 ml at 1 mg/ml; 40 mM Tris-HCl pH 8.0, 150 mM NaCl; mass from a calibration curve

Q: For “6-phosphogluconate dehydrogenase from Corynebacterium glutamicum ATCC 13032 (enzyme)”, which stoichiometry N is on record?
A: 2
